# Laboratory results from the DeepSol protein solubility set.
# Experiment: soluble on expression in E. coli; label from the status in PepcDB or PDB records
row,Sequence,soluble on expression in E. coli
1,MGSDKIHHHHHHMKFLFIVQGEGRGHLTQAITLEEMLLRNGHEVVEVLVGESSSRILPGFFNRNIQAPVKRFISPNFLPAADNKRANLKKSFTYNLLRIPEYFRSMCYINQRIKETGAEVVINFYELLTGLTYALFRPSVPYVCVGHQYLFLHQNFEFPDKNSFELRMLRFFTKMTAVRSSKKLALSFNDMEPDRGQQVVVVPPLIRQEVTAIQPEEGNYIHGYMVNSGFADSVEEFHTIYPEVPLRFFWDKADAEEVTRIDETLSFYQIDDVKFLNGMAGCRAYATTAGFESICEAMYLGKPVLMVPAHIEQDCNAHDAMRAGAGIISDSFDLKPLLRFAGTYSPNRTFVRWVRSGERRIILELEKLAASQSAITSIPTFTNYLPI,not soluble
2,MLLLSGFRYFRAVGVALLFLSVSLATVRADVRPETWQVVVDAGSSKTRGILYRLSADAVTPVVEYNSKLPLARYAGVPDESGNLLIAPLLDTLERLANDQKYALEKKTVLVNVLGTAGMRELSAGQQGVIYEAVKKSILAKGWALGQVGTIDGRDEGIFAWVHLNFLKGLATSDNTLGIIEMGGASSQITFALRSPPMDKADVSQNARTVMWDGKTYSVISESLLGLGADAARTAMNKVRPQDQRCYPQGALIMKVPTTGAFDFTACDLVYDEAIAANYQSEIKKLDAIVASSNYTQTDFVGLSSLYYTLNFFNNDLPERGTLKSALEQSCQRYADIEERLRQDDSKDKYQPENKCANGVFVYDLLYDYLQLGDGRLTALKKVENMDIRWTDGFLLLGKQAPLEHHHHHH,not soluble
3,MAEAAQAPQQQFAIQRIYLKDVSFEAPSSPVMFQKEWNPDVKLDLDTQSRELGQGVYEVVLRLTVTVKNAEETAFLCEVQQAGIFSAEQMEAGQLAHCLGAFCPNILFPYARETISSLVVKGTFPQLNLAPVNFDALFMNYLQQQAQEGATANA,not soluble
4,MAHHHHHHMAANEGNQSCMDALSSITFAQLAGPLQPVYGPSRVPRHQQFVDLVTDSSGMSPFIPFGTQGSANSSTAFPVDNAYLSKRAPPESEGQNRAAYYNNSSASMQTPEKVDKPQMLRQVSVGAPTPSSGMGMTASPATVCRYITHATPGSALLDETCTRTYLRSAPMNFVASTGITTDNAIGAVSNAVLSAAAAALPSVKVSIDDKPTSLAIELEQAYEEHVHESKRRVGDKVKRKEKKVLVTVGFPGVDNVPQMISDGTEEQLLNKEEVEQGKRRRERRQSRGKNKQKGDNNNNNCIFHDGDKFVSNFSSIHADNESHGECGDRKFLVTLRCHGHRDVTAICCLRLSKGKYVIFEADRGVDLGEVINVKELISEPSGNSAPAQVLRCALDEEVEDWKGPLVERENEAVEECRHVCEQLGLTIRVVGAAYQFDRQKLTFMYESDDRVDFRALLQVMFSKFRCRIWMERRGRGHQDNDAHTG,not soluble
5,MHHHHHHSSGVDLGTENLYFQSNAMMKAYQREFIEFALEKQVLKFGEFTLKSGRKSPYFFNAGLFNTGRDLARLGRFYAAALVDSGIEFDVLFGPAYKGIPIATTTAVALADHHDVDTPYCFNRKEAKNHGEGGNLVGSKLEGRVMLVDDVITAGTAIRESMELIQANKADLAGVLVAIDRQEKGKGELSAIQEVERDFGCAVISIVSLTDLITYLEQQGNNTEHLEAVKAYRAQYGI,soluble
6,MGSDKIHHHHHHMSEQNWTDTGRFDNKAAEWDANAIRAALADAVARAIIAHMPVGKPANALEFGCGTGLVTTRIAPHCLQLTAVDSSREMLRMLGEKIAASAIANVTPLHLDFSRPEEAAGLDRDYDFVYSSMTLHHIPDTASFLRELIGHMSPGGALAIADLDAEDGLFHNDATEKVHHGFDRTELQALLESAGFAGVSFMTAHIIEKKNREGNLKNYPVFLVTAVKPKA,not soluble
7,MSITEQVDVAIVGSGPAGLAAAIELRRQGVARVCVLERDGEAGGIPRHCAHPPFGLREHGRLLTGPAYAQRNVEQAERAGVDIRLRHSVVALAAAGLLQLATPEGPRSLRATRVLLATGARETPRSARLLGGDRPLGVINTGALQAYLYLQGLKPFERPLIVGTELVSLSAVMSCRRAGIRPVAMLERNARATARWPLSLFPRLCGVPMHFSSELLEIEGRGRVEAARVRLGDGRVERIACDGILLSGRFVPESSLVRLSHLELDPASGGPRIDQFGRCSDPAYFAAGNLLRPIETAGWSFREGRRIAGLLAADLRAELPSAAPGIAIDCSGPLKLCVPQRLLADPTPGLAHLQLRVSEAASGRLRILADGRPVWERALSCLPERRLLVPLAALRLPPDTRRLEVAFLTSGHLEHHHHHH,not soluble
8,MGSDKIHHHHHHMTFGEKLLNAASTRGRLCVGIDPHESLLTSWGLPVNVDGLAEFSRACVEAFADTVALVKPQVAFYERFGSAGFAILEETIQTLRERGCLVVSDAKRGDIGSTMAGYASAWLDPASPLSSDAVTVSPYLGFHSLDPVFELAEQHGRGVFVLAATSNPEARELQDQQNADGVSISQQIVDQAAALNAPYMAQGKAGNIGVVIGATLSKPPRLSTLGGAILMPGVGAQGGTASDVDEIAGDMAHLAFPNVSRSILATGPDIAEMKNSVAKNAADFPGFPRS,not soluble
9,MVQRVTIAPQGPEFSRFVMGYWRLMDWNMSARQLVSFIEEHLDLGVTTVDHADIYGGYQCEAAFGEALTLAPHLREKLQIVTKCGIATTARAENKLGHYITDRRHIILSAEQSLKNLATDYLDMLLIHRPDPLMDADDVAEAFQHLHQSGKVRHFGVSNFTPAQFTLLQSRLPFTLATNQVEISPVHQPLLLDGTLDQLQQLRIRPMAWSCLGGGRLFNDEAYQPLRQELSVIAQELNASSIEQVVYAWILRLPSQPLPIIGSGKIERVRAALEAETLSLTRQQWFRIRKAALGYDVP,not soluble
10,MGSDKIHHHHHHMIKNNRVYGIIGVGAYMANFNADLSGYPKTTTNNDIFGSDKALKYPMKRMWLIEGDKVFYIKSMTIAKSKKDKEMEILQPKDLIERYEDLFGKEWDANLTVKDVAKDLFSTVDIMNFGATFTGSESESKTAKKKIGHNISITGAVQINQGFNLYEKTNVLVQDILSPFRNPNDKSEDKTATSIGTKIVTDEAHYVYSFSVNPANYADYLGLIDGFEGYTTEAYEKFKRAARVATTAFNTNSKSGCENELALFIELKEDSKLFLANLDRYVEVRKKEKQTLYDLSKLAEIIAPQQEEIQSIELFHNPISVEVNYGSLPCTVNSIF,not soluble
11,MEYRITGKGVEISEAIKNYLEKRLDKIDRVIYDDDLVSFNVRIEKDGKNQYVVKFNMNLKGNIINVEERHPDIYTAIDFASDALEKQVKRLKERLKNHPHRSSALVETPLEEPGEFSPSDKVSSVKRVSLLNLDLDEAVMQMDELNHRFLVFRNVNTGEINLLYRDENGDIHLIEMAE,not soluble
12,KDWSLDVTANISALRNKVKSLGEGVQPIKAEVMMSGSFNDRPTITKPGLPIGTFWGYVVEGFDNDGNFIFQDNNGSVNGVLTGKPDGKIDENDKTDIGNPHPDFTYGLNINVGYKNWDLTAFFQGTQGNDIFALMKYDWYFGGANSATLKDAFYNSWTPQNPNAEAPKLNSKNSSGINSLPSTFYVEDGSYFRCKNLQIGYSFNKKLLQKFHIESFRIYAGVQNLFTITKYPLYDPEVSSNVLFDRGVDGFWQAQESPHEATMNSRVYNLGVNLTF,not soluble
13,MAHHHHHHMQRNEVESLEGLVLLVQLRVLVAHHNAVTSLRPIAVLPALSFIDARSNKIEDVNPMEDLPCDSLKYLALLDNPCCNGDRSVDREQIMKACPKLAMLDDVPRDPSAEKVTGSEEEENSDEEDGCKRWHAVSETPTGCSKGVSSRIHLYRSLKMCEPLPVSVPSLEPIPVTSQDIDTNRVTTTTDRLCEQLRHRSSAIRRMAGHHALGQTEVSDPVWDFGNHVENDGDSEHRSNGRRRLDSPESTLSLTLPPELEQERATKARLYDDIRFALQADDRRLRQLAGVVWDDVDKVLSTRQALVGHRRHRMHTAHQQPSDAYAKSLEILKHENRVANLDKYRKQENANAPQ,not soluble
14,MSLSSRNSTPLRQFGYEFFMTPLDVSKLVLPVSENYKLGPGDEVIIYIVGLPSNQEIPPVIKTIVDREGNISIPNLGVFNVWGLTLKETEELLRQELGLDLKVTVGEIRTFVIYVAGEVNRPGTHVATAVNTVIDALSIAGGVKKTGSLRNIILTRKTPSGLKTYNIDLYDVFIKGKPIDLTLRDGDTILVKPIGPTVAIAGEVKRPAIYEIKGGETIKDLIELAGGLLPSSYQYKVILQRYENGKLRIIEDSLTNKAFMNENLRDGDLVLIKKSADIPENSYSIEGYVTLPGVYEYKEGLKLSDILNPDLFFKDTNLKFAVLVRQYPKGSIPKYIAFSPEKVLTGKEDMELKPYDRLIFFKLGQSEGHHHHHH,soluble
15,MKRIGVFTSGGDAPGMNAAIRAVVRQAHALGVEVIGIRRGYAGMIQGEMVPLGVRDVANIIQRGGTILLTARSQEFLTEEGRAKAYAKLQAAGIEGLVAIGGDGTFRGALCLVEEHGMPVVGVPGTIDNDLYGTDYTIGFDTAVNTALEAIDRIRDTAASHERVFFIEVMGRHAGFIALDVGLAGGAEVIAVPEEPVDPKAVAEVLEASQRRGKKSSIVVVAEGAYPGGAAGLLAAIREHLQVEARVTVLGHIQRGGSPTAKDRILASRLGAAAVEALVGGASGVMVGEVEGEVDLTPLKEAVERRKDINRALLRLSQVLAL,soluble
16,MDSKEVLVHVKNLEKNKSNDAAVLEILHVLDKEFVPTEKLLRETKVGVEVNKFKKSTNVEISKLVKKMISSWKDAINKNKRSRQAQQHHQDHAPGNAEDKTTVGESVNGVQ,soluble
17,AHHHHHHGSKIAIPTNGGGREDTVAPLFARAPAFYIAEVDEKGNIISEKVIQNPAATAGRGAGPIAVQMLINEGVDTIVAPQVVPNALGAIQAAGIRVYYVTPGTPVEEAIKVATTGQGGQLPSLPQIPTPVTPAPAMYGPVYPPFGWGRGWGKGRGWGRGWGSILGYCPWTGMPSRRALRWYYGWW,not soluble
18,MGSDKIHHHHHHAPFVFDQQSYRQDVQTLASDEFEGRGPLSQGETLTVEYLENAFKKMGLAPGFGDSYRQSVPMAKITADQNMQLKVGELVFNNGSDFTARTEQIQPSITLDNSEIVFVGYGINAPEYGWNDYAGIDVKGKTVILMVNDPGFATQDPEVFKGNAMTYYGRWTYKYEEAARQGAKAVFIIHETAPAAYGWNVVQNSNTNTKYTLVDKEKNRSHIGVMGWVQHEVAQKIFTAAGLDYDKLKLTAAKPGFKSRSLDLKANLEVKNDIELATSYNVAGLLPGKTRPDEWLVMHAHWDHLGKTVHEDQTRIYNGAVDNASGVAGVLQLARHFKDLSATQPPARSMLFSAFTAEETGLIGAQYFAENSPVPTKQLVAFLNIDGMNVGKGVDYILRYGEGVSELENYLDKAAKAQGRWVKADPRPQNGLMFRSDHFALAKQGVPGLMFMSLGDTDPDYIAHKYHQGADDYDPSWTLGGVEQDLALISDILEKLANNNDWPKWLEASDFKTRRAQDGR,not soluble
19,MKPAYPPLLLQMSPAYTPRPLKNLFTANQCWAHLIEEGGLRDIEVESVTKMLACGTSILGVKHYTCGNHSCPHVKYLCNTCSCRACPSCGKKATDQWIANQQHRLPECTWQHLVFTLPDTLWPLFFHNRHWLDALCRLAVDNLLYAGRRRGVEVGVFCAIHTYGRRLNWHPHIHVSVTLGGIDDAGVWKDLSFHPSALRRRWMWNVRQYLLSQWEHTTVPPENAHLQSENDWRHLVLNAGGQHWHIHLSKKTKNGKKTVNYLGRYLKKPPISGSRLAHYTSGATLSFTYLDHRTKTYQQETLSQTDMLRRVVQHIPEKHFRMIRYFGFLANRVCGRQLPRVYEAIRMERRGKAPKLYFAQMSKAFLHRDPFSCVLCGARMVYTAAIAGLTVQGLINNAQSIAQLRYVPA,not soluble
